The supplement of paper PMC10724198
± gives the standard deviation of the averaged measurements.

Columns and labels:
[1] = test system: Saccharomyces cerevisiae; test: protein stability index of tFT-peptide fusion (C-terminal peptide) (PSI (0-1 scale)); higher = more stable (slower turnover)
Description: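 MPS profiling in S. cerevisiae of the tFT-X12 degron library: putative degron peptides plus stable controls, 12 aa, fused to the C-terminus of a sfGFP-mCherry timer. Cells are FACS-sorted into 8 mCherry/sfGFP bins and deep-sequenced. PSI runs from 0 (unstable) to 1 (stable). Backgrounds are wild type, das1Δ and doa10Δ at 30 °C, and wild type, das1Δ, cdc34-1 and cdc53-1 at 37 °C; 2-3 technical replicates each.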

[2] = test system: Saccharomyces cerevisiae; test: as above; conditions: genetic background: wild type; temperature: 30 C
[3] = genetic background: cdc34-1, temperature: 37 C
[4] = genetic background: cdc53-1, temperature: 37 C
[5] = genetic background: das1 deletion, temperature: 30 C
[6] = genetic background: das1 deletion, temperature: 37 C
[7] = genetic background: doa10 deletion, temperature: 30 C
[8] = genetic background: wild type, temperature: 30 C
[9] = genetic background: wild type, temperature: 37 C
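Further: PSI is a weighted mean of sequencing reads over stability bins, variants kept only with over 10 reads, mCherry proximal and sfGFP distal, peptide attached via GGGS linker.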

| Sequence | protein stability index [1, 3] | protein stability index [1, 4] | protein stability index [1, 5] | protein stability index [1, 6] | protein stability index [1, 7] | protein stability index [1, 8] | protein stability index [1, 9] | protein stability index [2] |
| --- | --- | --- | --- | --- | --- | --- | --- | --- |
| RFFKMREAIRIS | 0.567 ± 0.088 | 0.5742 ± 0.00075 | 0.392 ± 0.022 | 0.59 ± 0.052 | 0.205 ± 0.0066 | 0.24 ± 0.032 | 0.482 ± 0.0067 | 0.339 ± 0.027 |
| RFPFFLPFIAFL | 0.491 ± 0.012 | 0.539 ± 0.019 | 0.55 ± 0.0097 | 0.637 ± 0.0021 | 0.306 ± 0.013 | 0.254 ± 0.032 | 0.39 ± 0.0084 | 0.37 ± 0.036 |
| RGCFVLRKTHLL | 0.635 ± 0.0083 | 0.715 ± 0.017 | 0.645 ± 0.018 | 0.7323 ± 0.0044 | 0.126 ± 0.0097 | 0.152 ± 0.014 | 0.275 ± 0.0075 | 0.254 ± 0.0058 |
| RGVRALFLLLSF | 0.493 ± 0.042 | 0.51346 ± 1.4e-05 | 0.392 ± 0.039 | 0.575 ± 0.011 | 0.264 ± 0.0047 | 0.272 ± 0.016 | 0.45 ± 0.02 | 0.375 ± 0.059 |
| RHAHPLTAQLPL | 0.683 ± 0.031 | 0.707 ± 0.024 | 0.657 ± 0.026 | 0.747 ± 0.0096 | 0.694 ± 0.021 | 0.671 ± 0.042 | 0.7168 ± 0.0032 | 0.7048 ± 0.0032 |
| RHIPSIILAHVV | 0.645 ± 0.057 | 0.67 ± 0.016 | 0.585 ± 0.033 | 0.707 ± 0.033 | 0.172 ± 0.019 | 0.192 ± 0.024 | 0.296 ± 0.01 | 0.295 ± 0.037 |
| RICACHGIRFIP | 0.7111 ± 0.0033 | 0.742 ± 0.0023 | 0.637 ± 0.04 | 0.774 ± 0.051 | 0.3558 ± 0.0018 | 0.392 ± 0.032 | 0.617 ± 0.016 | 0.444 ± 0.064 |
| RIFWMFFSQHIG | 0.569 ± 0.011 | 0.761 ± 0.054 | 0.652 ± 0.019 | 0.7247 ± 0.00085 | 0.106 ± 0.0093 | 0.139 ± 0.024 | 0.288 ± 0.017 | 0.197 ± 0.068 |
| RLCLLLCCRLWL | 0.53 ± 0.023 | 0.58 ± 0.013 | 0.442 ± 0.022 | 0.565 ± 0.012 | 0.461 ± 0.022 | 0.428 ± 0.011 | 0.55 ± 0.01 | 0.4961 ± 0.0041 |
| RLFVRIQLSLLF | 0.313 ± 0.036 | 0.351 ± 0.012 | 0.31 ± 0.025 | 0.398 ± 0.0092 | 0.33 ± 0.0035 | 0.265 ± 0.033 | 0.3506 ± 0.00077 | 0.351 ± 0.0049 |
| RLICFFSMYLRF | 0.239 ± 0.024 | 0.17 ± 0.064 | 0.367 ± 0.058 | 0.395 ± 0.006 | 0.614 ± 0.029 | 0.355 ± 0.026 | 0.369 ± 0.022 | 0.334 ± 0.14 |
| RLLFFVFLSSRF | 0.287 ± 0.019 | 0.268 ± 0.014 | 0.33 ± 0.025 | 0.472 ± 0.0093 | 0.489 ± 0.04 | 0.329 ± 0.035 | 0.4212 ± 0.0027 | 0.407 ± 0.0066 |
| RLRCRVLQWVWG | 0.617 ± 0.0085 | 0.693 ± 0.0084 | 0.557 ± 0.038 | 0.6562 ± 0.0012 | 0.352 ± 0.0078 | 0.385 ± 0.027 | 0.571 ± 0.0062 | 0.471 ± 0.035 |
| RLSTTTTKQFIH | 0.668 ± 0.016 | 0.74 ± 0.013 | 0.661 ± 0.045 | 0.753 ± 0.021 | 0.302 ± 0.0053 | 0.348 ± 0.022 | 0.58 ± 0.011 | 0.4902 ± 0.0011 |
| RMTFFGFTVKML | 0.641 ± 0.025 | 0.7448 ± 0.0058 | 0.619 ± 0.0095 | 0.75 ± 0.011 | 0.196 ± 0.036 | 0.264 ± 0.03 | 0.537 ± 0.01 | 0.407 ± 0.031 |
| RNFSFTVICLAM | 0.48 ± 0.037 | 0.62 ± 0.05 | 0.485 ± 0.057 | 0.549 ± 0.0093 | 0.472 ± 0.026 | 0.474 ± 0.023 | 0.514 ± 0.019 | 0.511 ± 0.11 |
| RPCRPLIAAFVF | 0.531 ± 0.0097 | 0.537 ± 0.022 | 0.415 ± 0.045 | 0.5628 ± 0.0049 | 0.374 ± 0.012 | 0.421 ± 0.031 | 0.529 ± 0.0077 | 0.502 ± 0.011 |
| RQILYYRERFIP | 0.577 ± 0.043 | 0.715 ± 0.014 | 0.634 ± 0.011 | 0.694 ± 0.027 | 0.169 ± 0.012 | 0.196 ± 0.022 | 0.355 ± 0.017 | 0.313 ± 0.0065 |
| RRIKNRRLKQVT | 0.63 ± 0.076 | 0.694 ± 0.011 | 0.666 ± 0.064 | 0.722 ± 0.0067 | 0.214 ± 0.0054 | 0.283 ± 0.026 | 0.472 ± 0.036 | 0.43 ± 0.033 |
| RRQLVLVLSWVI | 0.466 ± 0.017 | 0.508 ± 0.018 | 0.346 ± 0.027 | 0.507 ± 0.019 | 0.299 ± 0.013 | 0.322 ± 0.017 | 0.506 ± 0.067 | 0.377 ± 0.025 |
